biological target: T1, purified human FAP antigen (human, UniProt Q12884 26-760, limits assumed); test: ELISA, plate coated with purified human FAP antigen (FIG. 56F-56G)
Method: (§1) Binding kinetics of the novel antigen binding constructs to a purified human FAP antigen was assessed using ELISA. For this assay, a 96 well ELISA plate was coated with the human-FAP antigen diluted to a concentration of 2 mg/mL in coating buffer (0.05M sodium carbonate-bicarbonate buffer, pH 9.6). 100 μl of this coating solution was added to each well in the plate and incubate at 4° C. overnight. The plate was washed 3 times with 300 μl per well of washing buffer (PBS with 0.05% Tween-20). After the last wash, the plate was blocked by adding to each well 200 μl of blocking buffer (PBS with 1% BSA) warmed to room temperature. The plate was then incubated at room temperature for 1 hour under gentle agitation. After blocking, the plate was washed 3 times with 300 μl per well of washing buffer. Dilution samples for each minibody were created by making 2.5× dilutions from a starting sample at 100 ng/mL, or 250 ng/mL, or 1000 ng/mL or 3000 ng/mL in 100 μL sample buffer (PBS with 1% BSA). The dilution samples were transferred to the assay plate and incubated at room temperature for 1 hour under gentle agitation. The plate was then washed 3 times with 300 μl per well of washing buffer.
(§2) Detection was performed by adding 100 μl of HRP labeled detection secondary antibody at an appropriate dilution and incubating the plate at room temperature for 1 hour under gentle agitation. The plate was then washed 3 times with 300 μl per well of washing buffer. For color development, 100 μl of TMB substrate regent, pre-warmed to room temperature, was added to the plate and incubated in the dark at room temperature for 15 min. The reaction was then stopped by adding 100 μl of 650 nm stop solution to the plate and mixed for 1 min at room temperature under gentle agitation. The plate is recorded by reading OD at 650 nm in a plate reader within 20 min after terminating the reaction.

Row | Binder | Kd [nM]
1 | IAB16C4-17 (other) QVQLVQSGAEVKKPGASVKVSCKTSRYTFTEYTIHWVRQAPGQRLEWIGGINPNNGIPNYNQKFKGRVTITVDTSASTAYMELSSLRSEDTAVYYCARRRIAYGYDEGHAMDYWGQGTLVTVSSGGGSGGGGDIVMTQSPDSLAVSLGERATINCKSSQSLLYSRNQKNYLAWYQQKPGQPPKLLIFWASTRESGVPDRFSGSGFGTDFTLTISSLQAEDVAVYYCQQYFSYPLTFGQGTKVEIKGGCPPCPPC | ~1
2 | IAB16C2-25 (other) EVQLLESGGGLVQPGGSLRLSCAASGFTFSSHAMSWVRQAPGKGLEWVSAIWASGEQYYADSVKGRFTISRDNSKNTLYLQMNSLRAEDTAVYYCAKGWLGNFDYWGQGTLVTVSSSGGGGEIVLTQSPGTLSLSPGERATLSCRASQSVSRSYLAWYQQKPGQAPRLLIIGASTRATGIPDRFSGSGSGTDFTLTISRLEPEDFAVYYCQQGQVIPPTFGQGTKVEIKGGCPPCPPC | ~1
3 | IAB16C1-24 (other) EIVLTQSPGTLSLSPGERATLSCRASQSVSRSYLAWYQQKPGQAPRLLIIGASTRATGIPDRFSGSGSGTDFTLTISRLEPEDFAVYYCQQGQVIPPTFGQGTKVEIKSGGGGEVQLLESGGGLVQPGGSLRLSCAASGFTFSSHAMSWVRQAPGKGLEWVSAIWASGEQYYADSVKGRFTISRDNSKNTLYLQMNSLRAEDTAVYYCAKGWLGNFDYWGQGTLVTVSSGGCPPCPPC | ~1
4 | IAB16C2-16 (other) QVQLVQSGAEVKKPGASVKVSCKTSRYTFTEYTIHWVRQAPGQRLEWIGGINPNNGIPNYNQKFKGRVTITVDTSASTAYMELSSLRSEDTAVYYCARRRIAYGYDEGHAMDYWGQGTLVTVSSSGGGGDIVMTQSPDSLAVSLGERATINCKSSQSLLYSRNQKNYLAWYQQKPGQPPKLLIFWASTRESGVPDRFSGSGFGTDFTLTISSLQAEDVAVYYCQQYFSYPLTFGQGTKVEIKGGCPPCPPC | ~1
5 | IAB16C2-18 (other) EVQLLESGGGLVQPGGSLRLSCAASGFTFSSYAMSWVRQAPGKGLEWVSAIIGSGASTYYADSVKGRFTISRDNSKNTLYLQMNSLRAEDTAVYYCAKGWFGGFNYWGQGTLVTVSSSGGGGEIVLTQSPGTLSLSPGERATLSCRASQSVTSSYLAWYQQKPGQAPRLLINVGSRRATGIPDRFSGSGSGTDFTLTISRLEPEDFAVYYCQQGIMLPPTFGQGTKVEIKGGCPPCPPC | ~1

Further lines, results first:

Row | Kd [nM] | Binder
6 | ~1 | IAB16C4-19 (other, also called IAB164-19) EVQLLESGGGLVQPGGSLRLSCAASGFTFSSYAMSWVRQAPGKGLEWVSAIIGSGASTYYADSVKGRFTISRDNSKNTLYLQMNSLRAEDTAVYYCAKGWFGGFNYWGQGTLVTVSSGGGSGGGGEIVLTQSPGTLSLSPGERATLSCRASQSVTSSYLAWYQQKPGQAPRLLINVGSRRATGIPDRFSGSGSGTDFTLTISRLEPEDFAVYYCQQGIMLPPTFGQGTKVEIKGGCPPCPPC
7 | ~1 | IAB16C4-27 (other) EVQLLESGGGLVQPGGSLRLSCAASGFTFSSHAMSWVRQAPGKGLEWVSAIWASGEQYYADSVKGRFTISRDNSKNTLYLQMNSLRAEDTAVYYCAKGWLGNFDYWGQGTLVTVSSGGGSGGGGEIVLTQSPGTLSLSPGERATLSCRASQSVSRSYLAWYQQKPGQAPRLLIIGASTRATGIPDRFSGSGSGTDFTLTISRLEPEDFAVYYCQQGQVIPPTFGQGTKVEIKGGCPPCPPC

biological target: T1, purified human FAP antigen; test: ELISA, plate coated with purified human FAP antigen (FIG. 56A-56C)
Method: as §1, §2

Row | Kd [nM] | Binder
8 | ~0.1 | IAB16M1-10 (other) EIVLTQSPGTLSLSPGERATLSCRASQSVSRSYLAWYQQKPGQAPRLLIIGASTRATGIPDRFSGSGSGTDFTLTISRLEPEDFAVYYCQQGQVIPPTFGQGTKVEIKGSTSGGGSGGGSGGGGSSEVQLLESGGGLVQPGGSLRLSCAASGFTFSSHAMSWVRQAPGKGLEWVSAIWASGEQYYADSVKGRFTISRDNSKNTLYLQMNSLRAEDTAVYYCAKGWLGNFDYWGQGTLVTVSSEPKSSDKTHTCPPCPPCGGGSSGGGSGGQPREPQVYTLPPSREEMTKNQVSLTCLVKGFYPSDIAVEWESNGQPENNYKTTPPVLDSDGSFFLYSKLTVDKSRWQQGNVFSCSVMHEALHNHYTQKSLSLSPG
9 | ~0.1 | IAB16M1-30 (other) DIVMTQSPDSLAVSLGERATINCKSSQSLLYSRNQKNYLAWYQQKPGQPPKLLIFWASTRESGVPDRFSGSGSGTDFTLTISSLQAEDFAVYYCQQYYSYPLTFGQGTKVEIKGSTSGGGSGGGSGGGGSSQVQLVQSGAEVKKPGASVKVSCKASGYTFTEYTIHWVRQAPGQRLEWIGGINPNNGIPNYNQKFKGRVTITVDTSASTAYMELSSLRSEDTAVYYCARRRIAYGYDEGHAMDYWGQGTLVTVSSEPKSSDKTHTCPPCPPCGGGSSGGGSGGQPREPQVYTLPPSREEMTKNQVSLTCLVKGFYPSDIAVEWESNGQPENNYKTTPPVLDSDGSFFLYSKLTVDKSRWQQGNVFSCSVMHEALHNHYTQKSLSLSPG
10 | ~0.1 | IAB16M1-32 (other) DIVMTQSPDSLAVSLGERATINCKSSQSLLYSRNQKNYLAWYQQKPGQPPKLLIFWASTRESGVPDRFSGSGFGTDFTLTISRLEPEDFAVYYCQQYFSYPLTFGQGTKVEIKGSTSGGGSGGGSGGGGSSQVQLVQSGAEVKKPGASVKVSCKTSRYTFTEYTIHWVRQAPGQRLEWIGGINPNNGIPNYNQKFKGRVTITVDTSASTAYMELSSLRSEDTAVYYCARRRIAYGYDEGHAMDYWGQGTLVTVSSEPKSSDKTHTCPPCPPCGGGSSGGGSGGQPREPQVYTLPPSREEMTKNQVSLTCLVKGFYPSDIAVEWESNGQPENNYKTTPPVLDSDGSFFLYSKLTVDKSRWQQGNVFSCSVMHEALHNHYTQKSLSLSPG
11 | ~0.1 | IAB16M1-36 (other) DIVMTQSPDSLAVSLGERATINCKSSQSLLYSRNQKNYLAWYQQKPGQPPKLLIFWASTRESGVPDRFSGSGSGTDFTLTISRLEPEDFAVYYCQQYYSYPLTFGQGTKVEIKGSTSGGGSGGGSGGGGSSQVQLVQSGAEVKKPGASVKVSCKASGYTFTEYTIHWVRQAPGQRLEWIGGINPNNGIPNYNQKFKGRVTITVDTSASTAYMELSSLRSEDTAVYYCARRRIAYGYDEGHAMDYWGQGTLVTVSSEPKSSDKTHTCPPCPPCGGGSSGGGSGGQPREPQVYTLPPSREEMTKNQVSLTCLVKGFYPSDIAVEWESNGQPENNYKTTPPVLDSDGSFFLYSKLTVDKSRWQQGNVFSCSVMHEALHNHYTQKSLSLSPG
12 | ~0.1 | IAB16M2-31 (other) QVQLVQSGAEVKKPGASVKVSCKASGYTFTEYTIHWVRQAPGQRLEWIGGINPNNGIPNYNQKFKGRVTITVDTSASTAYMELSSLRSEDTAVYYCARRRIAYGYDEGHAMDYWGQGTLVTVSSGSTSGGGSGGGSGGGGSSDIVMTQSPDSLAVSLGERATINCKSSQSLLYSRNQKNYLAWYQQKPGQPPKLLIFWASTRESGVPDRFSGSGSGTDFTLTISSLQAEDFAVYYCQQYYSYPLTFGQGTKVEIKEPKSSDKTHTCPPCPPCGGGSSGGGSGGQPREPQVYTLPPSREEMTKNQVSLTCLVKGFYPSDIAVEWESNGQPENNYKTTPPVLDSDGSFFLYSKLTVDKSRWQQGNVFSCSVMHEALHNHYTQKSLSLSPG
13 | ~0.1 | IAB16M2-33 (other) QVQLVQSGAEVKKPGASVKVSCKTSRYTFTEYTIHWVRQAPGQRLEWIGGINPNNGIPNYNQKFKGRVTITVDTSASTAYMELSSLRSEDTAVYYCARRRIAYGYDEGHAMDYWGQGTLVTVSSGSTSGGGSGGGSGGGGSSDIVMTQSPDSLAVSLGERATINCKSSQSLLYSRNQKNYLAWYQQKPGQPPKLLIFWASTRESGVPDRFSGSGFGTDFTLTISRLEPEDFAVYYCQQYFSYPLTFGQGTKVEIKEPKSSDKTHTCPPCPPCGGGSSGGGSGGQPREPQVYTLPPSREEMTKNQVSLTCLVKGFYPSDIAVEWESNGQPENNYKTTPPVLDSDGSFFLYSKLTVDKSRWQQGNVFSCSVMHEALHNHYTQKSLSLSPG

biological target: T2, human FAP on cells (human, UniProt Q12884 1-760); test: flow cytometry on U87-MG glioblastoma cells (FIG. 58B)
T2 construct: whole, on cells; The cell line is named under assay; also called HT1080 human FAP cells; HT1080-hFAP cells
Method: As disclosed herein, the binding of constructs to cellular targets was assessed using flow cytometry. Stock of 2.5× serial dilution of minibodies were created starting from a concentration of 100 nM in […] FACS buffer (PBS 2% FBS). Cells were added to a Corning V-bottom polypropylene cell culture plate at 200,000 cells/well. The cells were centrifuged at 100 rpm for 3 minutes and the supernatant discarded. The minibody dilution series were transferred to the plate containing cell pellets and incubated for 1 hr at 4° C. The plate was then washed 3 times with FACS buffer at 200 µl/well, discarding supernatant after each wash by centrifugation at 1000 rpm. 50 µl/well of detection antibody R&D AlexaFluor-647 Goat anti Human (H+L) was added at a 1:100 dilution in FACS buffer and incubated at 4° C. 1 hr. The plate was washed 3 times with FACS buffer at 200 µl/well, discarding supernatant after each wash by centrifuging at 1000 rpm. Cells were then fixed by adding 100 µl of 1% paraformaldehyde in PBS and incubating at room temperature for 15 minutes. 100 µl of PBS were added to each well and the plate was analyzed by flow cytometry using the allophycocyanin fluorescence setting.

Row | Kd [nM] | Binder
14 | ~0.1 | IAB16M1-10 (other) EIVLTQSPGTLSLSPGERATLSCRASQSVSRSYLAWYQQKPGQAPRLLIIGASTRATGIPDRFSGSGSGTDFTLTISRLEPEDFAVYYCQQGQVIPPTFGQGTKVEIKGSTSGGGSGGGSGGGGSSEVQLLESGGGLVQPGGSLRLSCAASGFTFSSHAMSWVRQAPGKGLEWVSAIWASGEQYYADSVKGRFTISRDNSKNTLYLQMNSLRAEDTAVYYCAKGWLGNFDYWGQGTLVTVSSEPKSSDKTHTCPPCPPCGGGSSGGGSGGQPREPQVYTLPPSREEMTKNQVSLTCLVKGFYPSDIAVEWESNGQPENNYKTTPPVLDSDGSFFLYSKLTVDKSRWQQGNVFSCSVMHEALHNHYTQKSLSLSPG

Reference: patent US20240390531A1 (IMAGINAB, published 2024)
